# Values of other authors, collected in publication PMC7312390.
# What was measured:
# Cys25 = Cys25 (UniProt position 158, GSCGSCWAFSA); conditions: free cysteine protease (Cys/His ion pair in the apo state)
# His57 = His57 (UniProt position 57, VVTAAHCGVTT); conditions: free (apo) chymotrypsin
Substance,pKa (Cys25),pKa (His57)
papain (Carica papaya (not stated in the article; inferred)),3.3,–
"chymotrypsin (not stated in the article (PDB 4CHA is bovine, Bos taurus, alpha-chymotrypsin))",–,7.5
